Assay [1] addresses T1, recombinant human complement component C1s (rhC1s) (human, UniProt P09871 16-688).
T1 sequence (looked up): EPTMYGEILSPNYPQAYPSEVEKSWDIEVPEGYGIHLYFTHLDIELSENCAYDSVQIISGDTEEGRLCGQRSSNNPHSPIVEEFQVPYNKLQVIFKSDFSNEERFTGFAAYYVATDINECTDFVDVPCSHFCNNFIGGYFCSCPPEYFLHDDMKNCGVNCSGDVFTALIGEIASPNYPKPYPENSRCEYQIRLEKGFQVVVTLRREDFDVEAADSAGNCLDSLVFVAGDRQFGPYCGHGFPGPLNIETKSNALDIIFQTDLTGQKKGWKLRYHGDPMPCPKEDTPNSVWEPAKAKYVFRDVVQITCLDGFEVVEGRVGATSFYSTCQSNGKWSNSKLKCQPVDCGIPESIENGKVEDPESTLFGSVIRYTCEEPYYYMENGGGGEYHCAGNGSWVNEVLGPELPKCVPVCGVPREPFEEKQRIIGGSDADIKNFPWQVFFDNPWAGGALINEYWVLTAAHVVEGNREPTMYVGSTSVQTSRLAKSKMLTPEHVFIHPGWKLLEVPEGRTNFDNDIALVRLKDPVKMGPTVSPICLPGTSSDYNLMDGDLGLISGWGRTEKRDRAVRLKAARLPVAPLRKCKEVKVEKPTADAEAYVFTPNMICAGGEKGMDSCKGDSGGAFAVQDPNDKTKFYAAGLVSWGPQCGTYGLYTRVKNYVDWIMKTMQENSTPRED
Nature of the assay: cell-based or functional assay.

Assay [2] deals with T1, recombinant human complement component …. The assay is described as follows: cell-based or functional assay. This is another data set of the same source.
Another assay addresses T2, Pro-C1s.
T2 construct: also called purified pro-C1s protein
T2 chain: T1 sequence (looked up)
Nature of the assay: bio-layer interferometry (BLI), kinetic analysis. On the technique in general: In BLI a coated tip is dipped into the sample, and binding shifts an interference pattern.

In assay [3] the target is T3, purified human activated C1s protein, two-chain form (Homo sapiens, UniProt P09871 16-688).
T3 construct: Purified protein bought from EMD Millipore; Biotin-labeled in the clone screen; also called active C1s; native C1s protein
T3 sequence: T1 sequence (looked up)
Nature of the assay: bio-layer interferometry (BLI), kinetic analysis.

Data on 12 molecules can be found in patent publication US20200079876A1 (BIOVERATIV USA, published 2020).

Substitutions are numbered along the chain they refer to.

B1: antibody IPN-M18 (antibody, V domains shown)
VH: EVQLQQSGPELVKPGASVKISCKASGYSFTGYYIHWVKQSPEKSLEWIGEINPTTNDTTYNQKFKAKATLTVDKSSNTAYMQLKSLTSEDSAVYYCSRDISGPAWFAYWGQGTLVTVSA
VL: DIVLTQTTAIMSASPGEKVTMTCSASSSISYMYWFQQKPGTSPKRWIYDTSKLASGVPARFSGSGSGTSYSLTISTMEAEDAATYYCHQRSSDPTFGGGTKLEINR
notes: Mouse monoclonal antibody (NZBW hybridoma)
The term Kd denotes the constant that tells how readily two partners part at equilibrium. Low readings indicate a tighter complex, high ones a looser complex. The koff is the rate constant with which the complex falls apart. For orientation: kon means the rate constant with which the complex forms. Take B1: the “inhibition of C1s protease activity (relative to nafamostat)” value (“inhibition … (relative to nafamostat)” for short) in assay [1] is more than 50%. Further, in assay [2], the “Inhibition of C1s Protease Activity (%), single point with clone supernatant, relative to 100 nM nafamostat” value came out at 68%. For the same molecule, in the assay with Pro-C1s, the Kd stood at 1.89 nM, the off-rate (koff) was found to be 0.000395 s⁻¹ and the on-rate (kon) turned out to be 209000 M⁻¹ s⁻¹. Also, in assay [3], the Kd stood at 1.98 nM, the koff worked out at 0.00102 s⁻¹ and the kon was 517000 M⁻¹ s⁻¹.

B2: antibody IPN-M1 (antibody, V domains shown)
VH: EVQLQQSGAELVRPGASVKLSCTASGFNIKDDYIHWVKQRPEQGLEWIGRIDPADDHTKYAPKFQDKATMTADTSSNTACLQLNSLTSEDTAVYYCAIYGSGWAWFPYWGQGTLVSVSA
VL: DIVLTQSTDYLAVSLGQRATISCKASQSVDYDGDSYMNWYQQKPGQPPKLLIYAASNLESGIPARFSGSGSGTDFTLNIHPVEEEDAATYYCQQSNEDPWTFGGGTKLEIK
notes: Mouse monoclonal antibody (NZBW hybridoma); of the 17, thirteen were IgG2a, one IgG2b, three IgG1; Same VL and VH as IPN-M3 and IPN-M13
For B2, the “inhibition … (relative to nafamostat)” value in assay [1] was more than 50%. For the same molecule, the “Inhibition of C1s Protease Activity (%), single point with clone supernatant, relative to 100 nM nafamostat” value in assay [2] stood at 79%. In the assay with Pro-C1s, binding was put at a Kd of 92.5 nM, the koff came to 0.000392 s⁻¹ and the kon came out at 4120 M⁻¹ s⁻¹. In addition, in assay [3], the Kd is 0.26 nM, the koff is 0.000213 s⁻¹ and the kon is 817000 M⁻¹ s⁻¹.

B3: antibody IPN-M2 (antibody, V domains shown)
VH: EVKLQQSGAELVRPGASVKLSCTASGFNIKDDYIHWVKQRPEQGLEWIGRIDPADGHTKYAPKFQVKATITADTSSNTAYLQLSSLTSEDTAVYYCARYGYGREVFDYWGQGTTLTVSS
VL: B2 VL with T8P, D9A, Y10S, P44T, L50I, A54D, T89I
notes: Mouse monoclonal antibody (NZBW hybridoma); Same VL and VH as IPN-M8
Take B3: the “inhibition … (relative to nafamostat)” value in assay [1] was more than 50%. In addition, the “Inhibition of C1s Protease Activity (%), single point with clone supernatant, relative to 100 nM nafamostat” value in assay [2] was determined as 100%. In the assay with Pro-C1s, the dissociation constant (Kd) was determined as 42.3 nM, the koff stood at 0.000197 s⁻¹ and the association rate constant (kon) was 4660 M⁻¹ s⁻¹. Further, in assay [3], the equilibrium dissociation constant (Kd) came out at 0.291 nM, the koff stood at 0.000279 s⁻¹ and the kon turned out to be 957000 M⁻¹ s⁻¹.

B4: antibody IPN-M15 (antibody, V domains shown)
VH: B2 VH with Q3K, Q5E
VL: B2 VL with D1F, I2A, V3L, L4M, A64T, S71F, T106P
notes: as for B1
On to B4, for which, in assay [1], the “inhibition … (relative to nafamostat)” value was more than 50%. Also, the “Inhibition of C1s Protease Activity (%), single point with clone supernatant, relative to 100 nM nafamostat” value in assay [2] amounted to 100%. For the same molecule, in the assay with Pro-C1s, the affinity, expressed as Kd, was 3.37 nM; the off-rate constant (koff) turned out to be 0.000194 s⁻¹; the kon was determined as 57500 M⁻¹ s⁻¹. In assay [3], this molecule gave a Kd of 0.172 nM, a dissociation rate constant (koff) of 0.000149 s⁻¹ and a kon of 858000 M⁻¹ s⁻¹.

B5: antibody IPN-M28 (antibody, V domains shown)
VH: B2 VH
VL: B2 VL with S7T, T8P
notes: as for B1
Consider B5, for which the “inhibition … (relative to nafamostat)” value in assay [1] is more than 50%. The “Inhibition of C1s Protease Activity (%), single point with clone supernatant, relative to 100 nM nafamostat” value in assay [2] came to 92%. Also, in the assay with Pro-C1s, the Kd came to 16.7 nM, the koff amounted to 0.000178 s⁻¹ and the association rate constant (kon) stood at 10600 M⁻¹ s⁻¹. Also, in assay [3], the Kd was 0.236 nM, the koff amounted to 0.000215 s⁻¹ and the association rate constant (kon) came to 914000 M⁻¹ s⁻¹.

B6: antibody IPN-M9 (antibody, V domains shown)
VH: QVQLQQPGAELVRPGASVKLSCKVSGYTFTRYWMHWVKQRPGQGLEWIGEINPSNSDTDYNEEFKSKATLTVDKSSSTAYMHLSSLTSEDSAVYYCTIDDSAYGWFAYWGQGTLVTVSA
VL: DIVMTQSPAIMSASPGERVTMTCSASSSISYMHWYHQKPGTSPKRWIYDTSKLASGVPARFSGSGSGTSYSLTISSMEAEDAATYYCHQRSSFPTFGAGTKLELK
notes: as for B1
In the case of B6, the “inhibition … (relative to nafamostat)” value in assay [1] is more than 50%. For the same molecule, the “Inhibition of C1s Protease Activity (%), single point with clone supernatant, relative to 100 nM nafamostat” value in assay [2] came to 69%. For the same molecule, in the assay with Pro-C1s, the Kd was found to be 4.69 nM, the koff is 0.000299 s⁻¹ and the kon is 63700 M⁻¹ s⁻¹. In assay [3], this molecule yielded a dissociation constant (Kd) of 0.608 nM, a koff of 0.000361 s⁻¹ and a kon of 594000 M⁻¹ s⁻¹.

B7: antibody IPN-M24 (antibody, V domains shown)
VH: EVKLQQSGAELVRPGVSVKISCKVSGYTFTDYAMHCVKQSHAKSLEWIGVISIYNGDASYNQKFKDKATMTVDKSSSTSYMDLARLTSEESAVYNCVREAPYLITTVFYAMDYWGQGTSVTVSS
VL: B6 VL with R18K, S26N, H36Q, A59T, S92F, F93Y, P94L, A98S, L104I
notes: as for B1
With B7, the “inhibition … (relative to nafamostat)” value in assay [1] was more than 50%. The “Inhibition of C1s Protease Activity (%), single point with clone supernatant, relative to 100 nM nafamostat” value in assay [2] is 68%. Moreover, in the assay with Pro-C1s, the Kd stood at 4.46 nM, the koff worked out at 0.00036 s⁻¹ and the kon stood at 80800 M⁻¹ s⁻¹. In assay [3], this molecule displayed a dissociation constant Kd of 1.01 nM, a koff of 0.000499 s⁻¹ and a kon of 492000 M⁻¹ s⁻¹.

B8: antibody IPN-M33 (antibody, V domains shown)
VH: QVKLQQSGPELVKPGTSVRISCKTSGYSFTGYYMHWVKQSPEKSLEWIGEINPSIGDITYNQRFKAKATLTVDKSSSTAYMQLKSLTSEDSAVYYCASDYYGGGFAWFAYWGQGTLVTVSA
VL: B6 VL with P15S, R18K, S30N, H36Q, A82T, S92D, F93S, P94L, A98S, L104I
notes: as for B1
Regarding B8, the “inhibition … (relative to nafamostat)” value in assay [1] was more than 50%. Moreover, the “Inhibition of C1s Protease Activity (%), single point with clone supernatant, relative to 100 nM nafamostat” value in assay [2] amounted to 97%. In the assay with Pro-C1s, this molecule showed an equilibrium dissociation constant (Kd) of 0.3 nM, an off-rate constant (koff) of 2.52e-05 s⁻¹ and a kon of 83800 M⁻¹ s⁻¹. Also, in assay [3], binding was put at a Kd of 0.329 nM, the koff was determined as 0.000154 s⁻¹ and the kon was determined as 467000 M⁻¹ s⁻¹.

B9: antibody IPN-M29 (antibody, V domains shown)
VH: EVQLQQSGPELVKPGASVKISCKASGYSFTGFYMQWVKQSPEKNLEWIGEINPTTGDETYNQKFQAKATLTVDKSSSTAYMQLKSLTSEDSAVYFCASDFYDGSFAWFEYWGKDYLTVSA
VL: B6 VL with M4L, A9V, R18K, M32I, H36Q, F93Y, P94L, A98S, L104I
notes: as for B1
As for B9, in assay [1], the “inhibition … (relative to nafamostat)” value is more than 50%. The “Inhibition of C1s Protease Activity (%), single point with clone supernatant, relative to 100 nM nafamostat” value in assay [2] is 73%. In the assay with Pro-C1s, this molecule registered a Kd of 5.55 nM, an off-rate (koff) of 0.000408 s⁻¹ and a kon of 73600 M⁻¹ s⁻¹. In assay [3], this molecule gave a Kd of 1.28 nM, a koff of 0.000594 s⁻¹ and a kon of 463000 M⁻¹ s⁻¹.

B10: antibody IPN-M27 (antibody, V domains shown)
VH: B6 VH with P7S, S85N
VL: B6 VL with M4L, P8T, T73A
notes: as for B1
Consider B10, for which the “inhibition … (relative to nafamostat)” value in assay [1] is more than 50%. Further, the “Inhibition of C1s Protease Activity (%), single point with clone supernatant, relative to 100 nM nafamostat” value in assay [2] worked out at 64%. In the assay with Pro-C1s, this molecule showed a Kd of 11.1 nM, a koff of 0.000283 s⁻¹ and an association rate constant (kon) of 25400 M⁻¹ s⁻¹. In assay [3], the equilibrium dissociation constant (Kd) is 0.593 nM, the off-rate constant (koff) worked out at 0.000394 s⁻¹ and the on-rate constant (kon) was 664000 M⁻¹ s⁻¹.

B11: antibody IPN-M10 (antibody, V domains shown)
VH: B6 VH with A102V
VL: B6 VL with M4I
notes: as for B1
On to B11, for which the “inhibition … (relative to nafamostat)” value in assay [1] was more than 50%. The “Inhibition of C1s Protease Activity (%), single point with clone supernatant, relative to 100 nM nafamostat” value in assay [2] was found to be 67%. In addition, in the assay with Pro-C1s, the Kd worked out at 7.98 nM, the off-rate (koff) stood at 0.000339 s⁻¹ and the kon is 42500 M⁻¹ s⁻¹. In assay [3], this molecule gave an equilibrium dissociation constant (Kd) of 0.607 nM, a koff of 0.000369 s⁻¹ and an on-rate (kon) of 608000 M⁻¹ s⁻¹.

B12: antibody IPN-M23 (antibody, V domains shown)
VH: B6 VH with A102V
VL: B6 VL with S12F, H33P, H36P, T41P, S66F, S69F, T84P, T95P
notes: as for B1
For the molecule B12, the “inhibition … (relative to nafamostat)” value in assay [1] is more than 50%. For the same molecule, the “Inhibition of C1s Protease Activity (%), single point with clone supernatant, relative to 100 nM nafamostat” value in assay [2] came out at 74%. In the assay with Pro-C1s, this molecule yielded a Kd of 7.17 nM, a dissociation rate constant (koff) of 0.000347 s⁻¹ and an association rate constant (kon) of 48400 M⁻¹ s⁻¹. In assay [3], this molecule came in with an equilibrium dissociation constant (Kd) of 0.57 nM, a koff of 0.000353 s⁻¹ and a kon of 619000 M⁻¹ s⁻¹.
